In the nanobody polyreactivity screen of Harvey et al. (2022):

Assay: yeast display, Sf9 membrane polyspecificity reagent, FACS + sequencing; frameworks hold sequencing errors
How it was run: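 Galactose induction of a Saccharomyces cerevisiae BJ5465 synthetic nanobody display library ran 36–48 hours. The cells were then stained for 1 hour at 4 °C with 10% biotinylated, detergent-solubilized Sf9 membrane reagent, pulled down on streptavidin microbeads and FACS-sorted into low and high (top ~1%) gates on expression and reagent-binding fluorescence. Labels for polyreactivity follow the gate of origin.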

| Sequence | polyreactivity (PSR sort gate) |
| --- | --- |
| QVQLVESGGGLVQAGGRLRLSCAASGFIFSNYAMGWYRQAPGKERELVAAISKSGGGTSYADSVKGRFTISRDTAMNTVYLQMNSLKPEDPAGYYCAARVRQIRVDYWGQGTQVTVSS | high polyreactivity |
| QVQLVESGGGLVQAGGRLRLSCAASGFIFYYNTMGWYRQAPGKERELVAAISSGGRTYYADSVKGRFTISRDNAKNTVYLQMNSLKPEDTAVYYCNVVTYVKYGYWGQGTQVTVSS | high polyreactivity |
| QVQLVESGGGLVQAGGRLRLSCAASGFIIVYYAAMGWYRQAPGKERELVAAISSRDDSTTYADSVKGRFTISRDNAKNTVYLQMNSLKPEDTAVYYCNADLGGFYYVYAYNYWGQGTQVTVSS | low polyreactivity |
| QVQLVESGGGLVQAGGRLRLSCAASGFSFSLYGMGWYRQAPGKERELVAAIRSGGSPNYADSVKGRFTISRDNAKNTVYLQMNSLKPEDTAVYYGATDIHSVHNNRDKHDYDYWGQGTQETVSS | low polyreactivity |
| QVQLVESGGGLVQAGGRLRLSCAASGFTFNWYDMGWYRQAPGKERELVATISTGGGTNYADSVKGRFTITRYNAKNTVYLQMNSLKPEDSAVYYCAADGSAGYLWGYDFEGVYWGQGTQVTVSS | high polyreactivity |
| QVQLVESGGGLVQAGGRLRLSCAASGFTFRRYTMGWYRQAPGKERELVAVISASGGSTYYADSEKGRFTISRDNAKNTVYLQMNSLKPEDTAVYYCNAVGTPYGLDEYWGQGTQVTVSS | high polyreactivity |
| QVQLVESGGGLVQAGGRLRLSCAASGFTFVRNTMGWYRQAPGKDRELVAAISRSGGSTYYADSVKGRFTISRDNAKNTVYLQMNSLKPEDTAVYYCNAYRYLHYDWGQGTQVTVSS | high polyreactivity |
| QVQLVESGGGLVQAGGRLRLSCAASGFTIPYKAMGWYRQAPGKERELVAAISRSGTRTYYADSVKGRFTISRDNAKNTLYIQMNSLKPEDTAVYYCAKDTIGGASPHYYWGKGTQVTVSS | high polyreactivity |
| QVQLVESGGGLVQAGGRLRLSCAASGITFTYYSMGGYRQAPGKERELVAAITDDGNTNYADSVKGRFTISRDNAKNTVYLQMNSLIPEDTAVYYCAADLLGIPDYEYWGQGTQVTVSS | low polyreactivity |
| QVQLVESGGGLVQAGGRLRLSCAASGNTFDYYAMGWYRPAPGKERELVAAITRGGSTNYADSVKGRFTISRDNAKNTVYLQMNSLKPEDTAVYYCAAEQRAPRFADYDYWGQGTQVTVSS | low polyreactivity |
| QVQLVESGGGLVQAGGRLRLSCAASGRIFGYYAIGWYRQAPGKERELVARISRGGSTYYADSVKGRFTISRDNAKNTVYLQMNSLKPEETAVYSCAATRSGYTSYTDDSGGQGTQVTVSS | high polyreactivity |
| QVQLVESGGGLVQAGGRLRLSCAASGRIFKWYPMGLYRQAPGKERELVAAITSGGSTYYADSVKGRFTISRDNAKNTVYLQMNSLNPEDTAVYYCAAPVYLYGTVGRGDYWGQGTQVTVSS | high polyreactivity |
| QVQLVESGGGLVQAGGRLRLSCAASGRIFRWNPMGWYRPAPGIERELVAAISASGGRTNYADSVKGRFTISRDNAKNTVYLQMKSLKPEDTAVYYCAAGPVYYYVPIGYDYWGQGTQVTVSS | high polyreactivity |
| QVQLVESGGGLVQAGGRLRLSCAASGRIFSDYAMGWYRQAPGKERELVAVITRGGDNTHYADSVKGRFSISRDNAKNTVYLQMNSLKAEDTAVYYCAAGFVYFRLRRYFWRDYCGQGTQVTVSS | low polyreactivity |
| QVQLVESGGGLVQAGGRLRLSCAASGRIFSYNAMGWYRQAPGKERELVAGITSGGRTYYADSVKGRFTISRDNAKNTVYLLIYSLKPEDTAVYYCGARYVPARSGYYYWGQGTQVTVSS | high polyreactivity |
| QVQLVESGGGLVQAGGRLRLSCAASGRIFYWNVMGWYRPAPGKERELVAAISSSGASTSYADSVKGRFTISRDNAKNTVYLQMNSLKPEDTAVYYCAARTRRNYRQYNYWGQGTQVTVSS | high polyreactivity |
| QVQLVESGGGLVQAGGRLRLSCAASGRILRWYTMGWYRQAPGKERELVAAITSRGGSTYYADSVKGRFTISRDNAKNTVYLQMNSLKPEDTAVYYCAAVSWYTRLTYYYWGQGTQVTVSS | high polyreactivity |
| QVQLVESGGGLVQAGGRLRLSCAASGRILYLNAMGWYRQAPGKERELVAAITKSGGSTYYADSVKGRFTISRDNAKNTVYLQMNSLKPEDTAVYYCAAEWVYYDYWQRFLYIDYDYWGQGTHVTVSS | high polyreactivity |
| QVQLVESGGGLVQAGGRLRLSCAASGRTCGYYTMGWYRQAPGKERELVATIRWSGGSTYADSVKGRFTISRDNAKNTVYLQMNSLKPEDTAVYYCAARNRIKWGQGTQVTVSS | high polyreactivity |
| QVQLVESGGGLVQAGGRLRLSCAASGRTFARYDRGWYRQAPGKELVLVAGMNGDGGSTNYADSVKGRFTISRDNAKNSVYLQMNSLKPEDTAVYYCNVVQEDRTLHVSIKQLSDHWGQGTQVTVSS | low polyreactivity |
| QVQLVESGGGLVQAGGRLRLSCAASGRTFATNTMGWYIQAPGKEREFVAAISRGGVSTSYADSVKGRFTISRDNAKNTVYLQMNSLKPEDTAVYYCAANHYGFNRNHRHTYVYWGQGTQVTVSS | high polyreactivity |
| QVQLVESGGGLVQAGGRLRLSCAASGRTFAYYAMGWSRQAPGKERELVAAITRGGSTYYADSVKGRFTISRDNAKNTVYLQMNSLKPEDTAVYYCAAATSPYQDDYWGQGTQVTVSS | low polyreactivity |

| Sequence | polyreactivity (PSR sort gate) |
| --- | --- |
| QVQLVESGGGLVQAGGRLRLSCAASGRTFGYNFMGWYRQAPGKERELVAAISSSGGSTYYADSVKGRFTISRDNGMNTVYLQMNSLKREDTAVYYCNARRGRASGMDYWGQGTQVTVSS | high polyreactivity |
| QVQLVESGGGLVQAGGRLRLSCAASGRTFKDYAMGWYRQAPGKERELVAGINGSGGSTYYADSVKGRFTISRDNAKNTVYLQMNSLKPEDTAVYYCNADFGYWWDGRRYDYWGQGTQVTVSS | low polyreactivity |
| QVQLVESGGGLVQAGGRLRLSCAASGRTFKLYAMGWYRQAPRKERELVAAITESGGSTYYADTVKGRFTISRDNAKNTVYLQMNILKPEDTAVDYCARVLQYQKRNDYEYWGQGTQVTVSS | low polyreactivity |
| QVQLVESGGGLVQAGGRLRLSCAASGRTFLRYAMGWYRQAPGKERELVAAISVSGGNTYYADSVKGRFTISRDNAKNTVYLQMNSLKPEDTAVYYCNKARLAAVFSYPYGYWGQGTQVTVSS | low polyreactivity |
| QVQLVESGGGLVQAGGRLRLSCAASGRTFNVNVMGWYRQAPGKERELVAAIRYTGGSTYADSVKGRFTISRDNAKNTVYLQMNSLKPEDTALYYCNADTFFPFDHGMDYWGQGTQVTVSS | low polyreactivity |
| QVQLVESGGGLVQAGGRLRLSCAASGRTFPIYAMGWYRQAPGKERELVAAITRGGRTNYADSVKGRFTISRDNAKNTVYLQMNSLKPEDTAVYYCAARTYGTYLYAEYDYWGQGTQVTVSS | high polyreactivity |
| QVQLVESGGGLVQAGGRLRLSCAASGRTFRPYALGWYRQPPVKERELVAAIDSSGTSTYYADSVKGRFTISRDNAKNTVYLQMNSLKPEDTAVYDCAQASPDHWYSRYDYWGQGTQVTVSS | low polyreactivity |
| QVQLVESGGGLVQAGGRLRLSCAASGRTFRRYAMGWYRPAPGTERELVAAISWSGGSTYYADSVKGRFTISRDNAKNSVYLQMNSLKPEDTAVYYCGAETRYGYGYWGQGTQVTVSS | high polyreactivity |
| QVQLVESGGGLVQAGGRLRLSCAASGSIFASYAMGWYRQAPGKERELVAAITSDGNTYYADSVKGRFTISRDNAKNTVYLPMNSLIPEDTAVYYCAADRYSTYPYAKGTEFYYWGQGTQVTVSS | low polyreactivity |
| QVQLVESGGGLVQAGGRLRLSCAASGSIFDLNAMGWYRQAPGKERELVAAISSGGGTYYADSVKGRFTISRDNAKNTVYLQMNSLKPEDTAVYYCNRVTRWTYNYWGQGTQVTVSS | high polyreactivity |
| QVQLVESGGGLVQAGGRLRLSCAASGSIFRYYAMGWYRQATGKERELVAAITRGDSTNYADSVKGRFTISRDNAKNTVYLQMNSLKPEDTAVYYCAASRYHGWYVKMGYWGQGTQVTVSS | high polyreactivity |
| QVQLVESGGGLVQAGGRLRLSCAASGSIFTPNAMGWYRQAPGKEMELVAAISSSSDRTYYADSVKGRFTISRDNAMITVYLQMNSLNPEDTAVYYCAAETNTWYLFDFWGQGTQVTVSS | high polyreactivity |
| QVQLVESGGGLVQAGGRLRLSCAASGSIFVGYAMGWYRQAPGKERELVAAISTRGGSTYYAHSVKGRFTISRDNAKNTVYLQMNSLKPEDTAVYYSAADYLDSTYGYVYGWDDYWGQGTQVTVST | low polyreactivity |
| QVQLVESGGGLVQAGGRLRLSCAASGSIFYGYDMGWYRQAPGKERELVAAITIGGGTTYYADSVKGRFTISRDNAKNTVYLQMNSLKPEDTAVYYCAKTYARPTRVQKYSGEGGYWGQGTQVTVSS | high polyreactivity |
| QVQLVESGGGLVQAGGRLRLSCAASGSISGYYAMGWYRQAPGKERELVASIRYTGARTYYADSVKGRFTISRDNAKNNVYLQMNSLKPEDTAVYYCAADVKRDRVWGGDYWGQGTQVTVSS | low polyreactivity |
| QVQLVESGGGLVQAGGRLRLSCAASGSISVTKAMGWYRQAPGTERELVAAISGSGGSTYADSVKGRFTISRDNAKNTVYLQMNSLKPVDTAVYYCDRDRYYTREWYWYRHDHWGQGTQVTVSS | low polyreactivity |
| QVQLVESGGGLVQAGGRLRLSCAASGSISWVYAMGWYRQAPGTERELVADITDSGDSTYYADSVKGRFTISRDNAKNTVYLQMHSLKPEDTAVYYSAAPGSRHYYIYWPYNYWGQGTQVTVSS | low polyreactivity |
| QVQLVESGGGLVQAGGRLRLSCAASGSTFAGNAMGWYRQAPGKERELVAAIDSSTGSTYYADSVKGRFTISRDNAKNTVYLQMNSLKAEDTAVYYCNKTSFLVKLDYWGQGTQVTVSS | low polyreactivity |
| QVQLVESGGGLVQAGGRLRLSCAASGSTFAINAMGWYRQAPGKERELVAAITWSGGSTYYADSVKGRFTISRDNAKNTVYLQMNSLKPEDTAVYYCNAKSYRHLLYIPYKYNYWGQGTQVTVSS | high polyreactivity |
| QVQLVESGGGLVQAGGRLRLSCAASGSTFGYYAMGWNRQAPGKERELVAAISSRDGSTFYADSVKGRFTISRDNAKNTVFLQMNSLKPDDTAVYYCAKVFFHTPIVPEYDYCGQGTQVTVSS | low polyreactivity |
| QVQLVESGGGLVQAGGRLRLSCAASGSTFKAYAMGWYRQAPGKERELVAAISSGGSRTYYADSVKGRFTISRDNAKITVYLQMHRLKPEDIEVYYCAARKADTVFKFEYWGQGTLVTVSS | high polyreactivity |
